The record followed here is paper PMC6983471.

Assay [1] deals with VEK50[RH1/AA] (VEK50^ΔRH1), VEK50 with R17H18 replaced by Ala-Ala (Streptococcus pyogenes (isolate AP53)). Kind of assay: NMR titration.
For assay [2], the target named is VEK50[RH2/AA] (VEK50^ΔRH2), VEK50 with R30H31 replaced by Ala-Ala (Streptococcus pyogenes (isolate AP53)). Briefly: NMR titration.
The target of assay [3] is VEK50[RH1/AA] (VEK50^ΔRH1), VEK50 with R17H18 replaced by Ala-Ala (Streptococcus pyogenes (isolate AP53)). Briefly: AUC.
Assay [4] deals with VEK50[RH2/AA] (VEK50^ΔRH2), VEK50 with R30H31 replaced by Ala-Ala (Streptococcus pyogenes (isolate AP53)). Kind of assay: AUC.
Assay [5] has as its target VEK50[RH1/AA] (VEK50^ΔRH1), VEK50 with R17H18 replaced by Ala-Ala (Streptococcus pyogenes (isolate AP53)). Kind of assay: ITC. In general terms: ITC needs no label: the signal is the heat of the interaction.
Assay [6] has as its target VEK50[RH2/AA] (VEK50^ΔRH2), VEK50 with R30H31 replaced by Ala-Ala (Streptococcus pyogenes (isolate AP53)). Kind of assay: ITC.

Turning to “K2hPg, kringle 2 domain of human plasminogen, triple variant C4G/E56D/L72Y (domain or fragment)”, the stoichiometry N (K2hPg per peptide) in assay [1], in assay [2], in assay [3], in assay [4], in assay [5] and in assay [6] was 1 in each case. Besides, the Kd (as a rule, the equilibrium constant for the complex coming apart) in assay [5] amounted to 9 nM; in assay [6], 42 nM.
